From the Immune Epitope Database (IEDB)

Assays:
HLA-B*15:02 = assay: IEDB peptide-MHC binding, purified MHC/competitive/fluorescence; filed as Kd, often an IC50 or EC50 that approximates it; ≥ and ≤ were set here for values at or beyond the usual limits of such assays
HLA-B*57:01 = assay: as above
HLA-B*46:01 = assay: as above; conditions: source organism: Zaire ebolavirus
HLA-A*02:01 = assay: as above; conditions: source organism: Zaire ebolavirus
HLA-B*39:01 = assay: as above; conditions: source organism: Zaire ebolavirus
HLA-B*51:01 = assay: as above; conditions: source organism: Zaire ebolavirus
HLA-A*69:01 = assay: as above; conditions: source organism: Zaire ebolavirus
HLA-A*26:01 = assay: as above; conditions: source organism: Zaire ebolavirus
HLA-B*27:05 = assay: as above; conditions: source organism: Zaire ebolavirus
HLA-B*35:01 = assay: as above
HLA-A*02:19 = assay: IEDB peptide-MHC binding, purified MHC/direct/fluorescence; filed as Kd, often an IC50 or EC50 that approximates it; ≥ and ≤ were set here for values at or beyond the usual limits of such assays; conditions: source organism: Ebola virus Yambio0403
HLA-C*14:02 = assay: as above
HLA-A*03:01 [1] = assay: as above; conditions: source organism: Ebola virus Yambio0403
HLA-A*02:16 = assay: as above; conditions: source organism: Ebola virus Yambio0403
HLA-A*68:02 = assay: as above; conditions: source organism: Ebola virus Yambio0403
HLA-B*08:01 = assay: as above
HLA-A*02:03 [2] = assay: as above; conditions: source organism: Ebola virus Yambio0403
HLA-A*02:12 = assay: as above; conditions: source organism: Ebola virus Yambio0403
HLA-C*03:03 = assay: as above
HLA-C*12:03 = assay: as above
HLA-C*15:02 = assay: as above; conditions: source organism: Mycobacterium tuberculosis H37Ra
HLA-B*14:02 = assay: IEDB peptide-MHC binding, purified MHC/competitive/fluorescence; ≥ and ≤ were set here for values at or beyond the usual limits of such assays; conditions: source organism: Human immunodeficiency virus 1
HLA-A*02:06 = assay: IEDB peptide-MHC binding, purified MHC/competitive/fluorescence; filed as Kd, often an IC50 or EC50 that approximates it; ≥ and ≤ were set here for values at or beyond the usual limits of such assays; conditions: source organism: Human immunodeficiency virus 1
HLA-A*11:01 = assay: as above; conditions: source organism: Human immunodeficiency virus 1
HLA-A*02:03 [3] = assay: as above; conditions: source organism: Human immunodeficiency virus 1
HLA-B*15:01 = assay: as above
HLA-A*26:02 = assay: as above; conditions: source organism: Human immunodeficiency virus 1
HLA-A*30:01 = assay: as above; conditions: source organism: Human immunodeficiency virus 1
HLA-B*18:01 = assay: as above; conditions: source organism: Human immunodeficiency virus 1
HLA-B*15:17 = assay: as above; conditions: source organism: Human immunodeficiency virus 1
HLA-A*01:01 = assay: as above
HLA-A*24:02 = assay: as above; conditions: source organism: Entamoeba histolytica HM-1:IMSS
HLA-C*07:02 = assay: IEDB peptide-MHC binding, purified MHC/direct/fluorescence; filed as Kd, often an IC50 or EC50 that approximates it; ≥ and ≤ were set here for values at or beyond the usual limits of such assays
HLA-B*58:01 = assay: IEDB peptide-MHC binding, purified MHC/competitive/fluorescence; filed as Kd, often an IC50 or EC50 that approximates it; ≥ and ≤ were set here for values at or beyond the usual limits of such assays; conditions: source organism: Escherichia coli O139:H28 str. E24377A
HLA-A*03:01 [4] = assay: as above; conditions: source organism: Escherichia coli O139:H28 str. E24377A
HLA-B*07:02 = assay: as above; conditions: source organism: Influenza A virus (A/duck/Bavaria/1/1977(H1N1))
HLA-C*05:01 = assay: IEDB peptide-MHC binding, purified MHC/direct/fluorescence; filed as Kd, often an IC50 or EC50 that approximates it; ≥ and ≤ were set here for values at or beyond the usual limits of such assays; conditions: source organism: Influenza A virus (A/duck/Bavaria/1/1977(H1N1))
[5] = source organism: Zaire ebolavirus
[6] = source organism: Entamoeba histolytica HM-1:IMSS
[7] = source organism: Mycobacterium tuberculosis H37Ra
[8] = source organism: Human immunodeficiency virus 1
[9] = source organism: Escherichia coli O139:H28 str. E24377A
[10] = source organism: Yellow fever virus

Question: How did the Kd (HLA-B*15:02; source organism: Clostridium botulinum A str. ATCC 3502) turn out when ELYPGDSAH was run?
Answer: 0.615 µM

Question: Which results are given for FRYEFTAPF?
Answer: Kd (HLA-B*57:01; [5]): ≥ 20 µM; Kd (HLA-B*46:01): ≥ 20 µM; Kd (HLA-A*02:01): ≥ 20 µM; Kd (HLA-B*39:01): 0.0007 µM; Kd (HLA-B*51:01): ≥ 20 µM; Kd (HLA-A*69:01): ≥ 20 µM; Kd (HLA-A*26:01): ≥ 20 µM; Kd (HLA-B*27:05): 0.724 µM; Kd (HLA-B*35:01; [5]): 0.952 µM; Kd (HLA-A*02:19): ≥ 20 µM; Kd (HLA-C*14:02; [5]): 0.209 µM; Kd (HLA-A*03:01 [1]): ≥ 20 µM; Kd (HLA-A*02:16): ≥ 20 µM; Kd (HLA-A*68:02): ≥ 20 µM; Kd (HLA-B*08:01; [5]): 6.57 µM; Kd (HLA-A*02:03 [2]): ≥ 20 µM; Kd (HLA-A*02:12): ≥ 20 µM

Question: ILLFPLPSF was tested. Which Kd (HLA-B*15:02; [6]) did it give?
Answer: 2.06 µM

Question: What does the source list for IMYNYPAML?
Answer: Kd (HLA-B*08:01; source organism: Mycobacterium tuberculosis): 2.68 µM; Kd (HLA-C*03:03; source organism: Mycobacterium leprae): 0.045 µM

Question: Which results are given for KAAGAAVAL?
Answer: Kd (HLA-C*12:03; [7]): 0.076 µM; Kd (HLA-C*15:02): 1.77 µM; Kd (HLA-C*03:03; [7]): 0.002 µM

Question: KHYMLKHL was tested. Which IC50 (HLA-B*14:02) did it give?
Answer: ≥ 20 µM

Question: For KSLFNTIAVLY, which Kd (HLA-A*02:06) is on record?
Answer: 0.206 µM

Question: What about the Kd (HLA-B*57:01; [8]) of the same sequence?
Answer: 0.19 µM

Question: What about the Kd (HLA-A*11:01) of the same sequence?
Answer: 1.92 µM

Question: And the Kd (HLA-A*02:03 [3])?
Answer: 0.566 µM

Question: What about the Kd (HLA-B*15:01; [8]) of the same sequence?
Answer: 1.2 µM

Question: What about the Kd (HLA-A*26:02) of the same sequence?
Answer: 1.11 µM

Question: What about the Kd (HLA-A*30:01) of the same sequence?
Answer: 1.35 µM

Question: What about the Kd (HLA-B*18:01) of the same sequence?
Answer: 0.26 µM

Question: And the Kd (HLA-B*15:17)?
Answer: 0.0213 µM

Question: What about the Kd (HLA-B*35:01; [8]) of the same sequence?
Answer: 1.01 µM

Question: What about the Kd (HLA-A*01:01; [8]) of the same sequence?
Answer: 2.13 µM

Question: How did the Kd (HLA-A*24:02) turn out when KYNSHHFTF was run?
Answer: ≤ 0.0001 µM

Question: And the Kd (HLA-C*14:02; [6])?
Answer: 0.08 µM

Question: What about the Kd (HLA-C*07:02; [6]) of the same sequence?
Answer: 0.002 µM

Question: How did the Kd (HLA-B*58:01) turn out when LANWCLLNY was run?
Answer: 0.104 µM

Question: What about the Kd (HLA-A*03:01 [4]) of the same sequence?
Answer: ≥ 20 µM

Question: What about the Kd (HLA-B*15:01; [9]) of the same sequence?
Answer: 2.38 µM

Question: And the Kd (HLA-B*35:01; [9])?
Answer: 0.0046 µM

Question: And the Kd (HLA-A*01:01; [9])?
Answer: 1.67 µM

Question: For LPFQNIHPI, which Kd (HLA-B*07:02) is on record?
Answer: 0.104 µM

Question: What about the Kd (HLA-C*07:02; source organism: Influenza A virus (A/duck/Bavaria/1/1977(H1N1))) of the same sequence?
Answer: ≥ 20 µM

Question: And the Kd (HLA-C*05:01)?
Answer: ≥ 20 µM

Question: Which Kd (HLA-B*15:02; source organism: Escherichia coli APEC O1) does the source give for NLYGWHLPL here?
Answer: 0.0095 µM

Question: Which Kd (HLA-B*15:02; source organism: Vibrio antiquarius) does the source give for TQHFGWHAF here?
Answer: 0.0214 µM

Question: How did the Kd (HLA-C*12:03; [10]) turn out when VAIDRPAEV was run?
Answer: ≤ 0.001 µM

Question: What about the Kd (HLA-C*03:03; [10]) of the same sequence?
Answer: 0.002 µM
